The text below walks through data of article PMC3397946, “Identification and Characterization of the Cognate Anti-Sigma Factor and Specific Promoter Elements of a T. tengcongensis ECF Sigma Factor”.

Series [1] deals with T1, Tt-RpoE1 (Thermoanaerobacter tengcongensis MB4T, UniProt Q8RCT7 1-162).
T1 sequence: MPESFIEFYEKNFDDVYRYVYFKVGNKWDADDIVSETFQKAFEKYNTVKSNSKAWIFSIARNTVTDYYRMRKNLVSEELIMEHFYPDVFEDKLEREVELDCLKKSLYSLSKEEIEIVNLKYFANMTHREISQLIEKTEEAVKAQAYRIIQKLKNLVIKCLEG
Nature of the series: EMSA; 5 uM protein; 50 mM Tris-HCl pH 8.0, 10 mM MgAc2, 30 mM NaCl, 1 mM DTT, 5% glycerol, 30 ug/ml BSA, 0.5 mM EDTA, 1 ug poly(dI-dC), 20 fmol probe in 20 ul, 25 C, 20 min. As to conditions: protein: recombinant; tags: His (pET28a); label: 5'-32P top strand; fork: top 3' overhang 10 nt. Background: In EMSA bound probe runs differently from free probe, usually more slowly.

The target of series [2] is T2, Tt-RpoE1;Tt-TolB (Thermoanaerobacter tengcongensis …, UniProt Q8RCT7;Q8RCT8 1-162;1-645, |).
T2 sequence 1: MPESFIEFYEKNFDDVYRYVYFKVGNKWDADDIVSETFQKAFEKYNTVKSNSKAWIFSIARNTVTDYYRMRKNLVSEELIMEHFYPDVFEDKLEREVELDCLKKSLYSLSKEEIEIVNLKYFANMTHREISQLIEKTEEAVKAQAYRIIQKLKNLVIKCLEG
T2 sequence 2: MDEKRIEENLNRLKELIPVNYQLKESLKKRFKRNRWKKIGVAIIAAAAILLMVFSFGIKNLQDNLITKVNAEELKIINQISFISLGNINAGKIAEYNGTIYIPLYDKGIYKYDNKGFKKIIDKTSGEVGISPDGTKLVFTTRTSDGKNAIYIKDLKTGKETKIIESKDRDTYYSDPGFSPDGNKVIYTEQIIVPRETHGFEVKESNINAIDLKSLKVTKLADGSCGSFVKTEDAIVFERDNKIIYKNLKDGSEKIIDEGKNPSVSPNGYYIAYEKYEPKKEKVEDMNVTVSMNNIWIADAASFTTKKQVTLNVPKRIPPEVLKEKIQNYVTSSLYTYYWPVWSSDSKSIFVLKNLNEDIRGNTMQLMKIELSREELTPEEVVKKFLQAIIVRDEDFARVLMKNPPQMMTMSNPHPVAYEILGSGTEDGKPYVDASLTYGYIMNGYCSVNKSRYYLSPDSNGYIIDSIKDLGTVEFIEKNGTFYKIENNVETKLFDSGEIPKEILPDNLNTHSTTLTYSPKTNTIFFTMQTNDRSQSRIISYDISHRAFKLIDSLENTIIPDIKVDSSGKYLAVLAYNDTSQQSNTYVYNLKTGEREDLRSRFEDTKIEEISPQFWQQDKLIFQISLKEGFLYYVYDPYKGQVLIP
Nature of the series: EMSA; 5 uM each; supershifted complex; 50 mM Tris-HCl pH 8.0, 10 mM MgAc2, 30 mM NaCl, 1 mM DTT, 5% glycerol, 30 ug/ml BSA, 0.5 mM EDTA, 1 ug poly(dI-dC), 20 fmol probe in 20 ul, 25 C, 20 min. As to conditions: protein: recombinant;recombinant; tags: His (pET28a);His (pET28a); label: 5'-32P top strand; fork: top 3' overhang 10 nt.

Series [3] addresses T3, Tt-TolB (Thermoanaerobacter tengcongensis MB4T, UniProt Q8RCT8 1-645).
T3 sequence: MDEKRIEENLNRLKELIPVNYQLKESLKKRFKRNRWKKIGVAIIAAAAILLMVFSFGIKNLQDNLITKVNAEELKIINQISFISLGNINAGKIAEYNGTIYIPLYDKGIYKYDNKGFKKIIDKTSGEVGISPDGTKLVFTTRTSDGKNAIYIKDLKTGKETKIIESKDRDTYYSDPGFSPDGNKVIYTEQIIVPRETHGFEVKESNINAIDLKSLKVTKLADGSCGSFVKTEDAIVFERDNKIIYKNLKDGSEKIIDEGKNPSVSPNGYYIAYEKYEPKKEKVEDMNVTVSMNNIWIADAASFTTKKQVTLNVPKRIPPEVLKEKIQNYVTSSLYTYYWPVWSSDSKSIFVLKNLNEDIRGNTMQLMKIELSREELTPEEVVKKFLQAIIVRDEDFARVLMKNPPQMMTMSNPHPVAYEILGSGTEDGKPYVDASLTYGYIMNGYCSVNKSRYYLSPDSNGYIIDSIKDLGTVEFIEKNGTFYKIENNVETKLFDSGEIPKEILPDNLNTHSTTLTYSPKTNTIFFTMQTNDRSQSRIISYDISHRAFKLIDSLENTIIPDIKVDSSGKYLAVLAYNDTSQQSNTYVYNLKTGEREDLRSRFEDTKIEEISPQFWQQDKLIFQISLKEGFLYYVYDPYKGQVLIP
The series is described as follows: EMSA; 5 uM, alone; 50 mM Tris-HCl pH 8.0, 10 mM MgAc2, 30 mM NaCl, 1 mM DTT, 5% glycerol, 30 ug/ml BSA, 0.5 mM EDTA, 1 ug poly(dI-dC), 20 fmol probe in 20 ul, 25 C, 20 min. Conditions: protein: recombinant; tags: His (pET28a); label: 5'-32P top strand; fork: top 3' overhang 10 nt.

Series [4] concerns the target T4, Tt-TolB-C (Thermoanaerobacter tengcongensis MB4T, UniProt Q8RCT8 62-645).
T4 sequence: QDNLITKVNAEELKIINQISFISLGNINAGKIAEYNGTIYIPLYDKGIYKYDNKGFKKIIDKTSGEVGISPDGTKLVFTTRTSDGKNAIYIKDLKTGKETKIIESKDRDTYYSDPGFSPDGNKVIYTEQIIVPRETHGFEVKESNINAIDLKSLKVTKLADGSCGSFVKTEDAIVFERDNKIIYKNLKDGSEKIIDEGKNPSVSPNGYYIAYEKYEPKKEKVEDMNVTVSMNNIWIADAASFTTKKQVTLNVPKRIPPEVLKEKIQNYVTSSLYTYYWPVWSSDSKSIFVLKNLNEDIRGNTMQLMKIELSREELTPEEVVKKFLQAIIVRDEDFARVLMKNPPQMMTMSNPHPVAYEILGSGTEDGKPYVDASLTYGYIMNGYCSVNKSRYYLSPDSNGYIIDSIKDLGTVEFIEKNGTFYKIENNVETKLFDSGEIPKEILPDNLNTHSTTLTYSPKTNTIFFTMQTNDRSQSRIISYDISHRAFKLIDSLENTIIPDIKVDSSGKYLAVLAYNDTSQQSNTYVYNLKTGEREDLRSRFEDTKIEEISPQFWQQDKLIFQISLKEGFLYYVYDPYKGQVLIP
The description is as above. As to conditions: protein: recombinant; tags: His (pET28a); label: 5'-32P top strand; fork: top 3' overhang 10 nt.

B1: T+1/B-10 (dsDNA)
DNA 1: GGTATTGTTACCTTTTGTGTAGATTTTCGTCTATAAAGGTG
DNA 2: GACGAAAATCTACACAAAAGGTAACAATACC
In the case of B1, the binding result in series [1] is given as “binds”; in series [2], “binds”; in series [3], “no binding”; in series [4], “no binding”.
